PMC2288801

Assays:
collagen type I = collagen type I (UniProt P02452)
[1] = molecular target: human plasma fibronectin (human); experiment: ligand affinity chromatography
[2] = molecular target: human plasma fibronectin (human)
[3] = molecular target: laminin from the Engelbreth-Holm-Swarm murine tumor (mouse) (UniProt P19137)

Chain of UniProt P02452 (P02452 162-1218, chain 1 of 2): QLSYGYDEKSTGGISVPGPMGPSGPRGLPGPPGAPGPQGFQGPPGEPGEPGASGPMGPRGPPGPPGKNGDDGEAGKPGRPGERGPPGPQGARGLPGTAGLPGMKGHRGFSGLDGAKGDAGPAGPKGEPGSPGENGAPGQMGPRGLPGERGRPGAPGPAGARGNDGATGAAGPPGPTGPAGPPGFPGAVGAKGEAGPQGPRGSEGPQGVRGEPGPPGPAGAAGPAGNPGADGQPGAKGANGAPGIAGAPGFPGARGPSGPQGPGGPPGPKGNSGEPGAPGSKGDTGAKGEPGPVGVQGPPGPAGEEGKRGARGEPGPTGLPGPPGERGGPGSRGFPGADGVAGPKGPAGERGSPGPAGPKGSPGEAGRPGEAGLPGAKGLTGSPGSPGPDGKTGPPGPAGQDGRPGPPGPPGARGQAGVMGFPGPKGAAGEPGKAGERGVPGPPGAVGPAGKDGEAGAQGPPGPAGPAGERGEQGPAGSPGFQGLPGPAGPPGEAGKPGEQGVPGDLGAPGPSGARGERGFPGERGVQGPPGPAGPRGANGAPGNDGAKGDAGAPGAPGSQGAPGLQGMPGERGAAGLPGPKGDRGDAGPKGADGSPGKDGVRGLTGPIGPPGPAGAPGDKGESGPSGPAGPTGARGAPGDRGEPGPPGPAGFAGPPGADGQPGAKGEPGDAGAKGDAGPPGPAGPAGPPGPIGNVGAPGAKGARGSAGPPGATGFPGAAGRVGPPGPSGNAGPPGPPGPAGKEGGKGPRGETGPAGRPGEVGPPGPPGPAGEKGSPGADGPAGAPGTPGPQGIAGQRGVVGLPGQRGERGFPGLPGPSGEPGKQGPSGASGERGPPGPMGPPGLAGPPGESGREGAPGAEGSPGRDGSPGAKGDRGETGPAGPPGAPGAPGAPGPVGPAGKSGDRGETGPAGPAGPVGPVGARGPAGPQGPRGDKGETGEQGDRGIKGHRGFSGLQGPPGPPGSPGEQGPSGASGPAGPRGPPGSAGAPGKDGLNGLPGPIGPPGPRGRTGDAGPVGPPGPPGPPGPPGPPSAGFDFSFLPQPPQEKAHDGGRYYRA
Chain of UniProt P02452 (P08123 80-1119, chain 2 of 2, further chain): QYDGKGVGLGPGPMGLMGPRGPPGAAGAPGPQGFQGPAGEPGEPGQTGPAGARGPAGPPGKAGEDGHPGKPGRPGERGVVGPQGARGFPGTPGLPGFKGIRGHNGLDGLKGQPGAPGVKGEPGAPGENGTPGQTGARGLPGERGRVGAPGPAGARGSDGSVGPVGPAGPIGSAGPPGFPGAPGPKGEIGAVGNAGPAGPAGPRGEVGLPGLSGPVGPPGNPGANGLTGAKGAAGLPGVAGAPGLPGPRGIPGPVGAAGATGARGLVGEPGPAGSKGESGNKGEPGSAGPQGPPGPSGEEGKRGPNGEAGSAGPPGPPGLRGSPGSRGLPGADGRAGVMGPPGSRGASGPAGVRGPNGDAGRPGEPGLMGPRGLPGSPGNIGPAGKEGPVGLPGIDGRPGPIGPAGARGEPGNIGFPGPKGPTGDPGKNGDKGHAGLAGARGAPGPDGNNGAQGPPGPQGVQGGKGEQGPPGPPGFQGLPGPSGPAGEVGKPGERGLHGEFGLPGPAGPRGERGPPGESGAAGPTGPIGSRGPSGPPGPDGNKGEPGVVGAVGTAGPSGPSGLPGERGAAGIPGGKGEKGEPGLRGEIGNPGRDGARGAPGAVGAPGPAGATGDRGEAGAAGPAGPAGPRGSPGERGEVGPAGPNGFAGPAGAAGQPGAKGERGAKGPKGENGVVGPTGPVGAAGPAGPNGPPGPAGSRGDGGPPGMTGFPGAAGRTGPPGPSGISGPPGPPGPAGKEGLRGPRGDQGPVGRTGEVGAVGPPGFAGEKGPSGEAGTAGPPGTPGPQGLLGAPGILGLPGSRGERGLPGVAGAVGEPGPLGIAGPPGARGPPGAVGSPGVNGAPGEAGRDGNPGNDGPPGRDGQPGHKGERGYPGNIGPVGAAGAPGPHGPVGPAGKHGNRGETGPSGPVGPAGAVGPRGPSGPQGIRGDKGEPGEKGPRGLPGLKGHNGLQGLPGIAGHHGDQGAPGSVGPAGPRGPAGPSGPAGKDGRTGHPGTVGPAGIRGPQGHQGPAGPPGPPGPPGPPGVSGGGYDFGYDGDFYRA

Work on “integrin VLA-2 (alpha2 beta1) from LOX melanoma cells (from UniProt P17301;P05556) (receptor)” yielded an inhibition of LOX cell attachment to Coll type I by anti-VLA-2 mAb (5E8) (collagen type I) of 76%.
“integrin VLA-3 (alpha3 beta1) from LOX melanoma cells (from UniProt P05556 21-798) (receptor)” was tested, and the percent of VLA-3 bound to the column [1] was 100%.
Work on “integrin VLA-3 (alpha3 beta1) from NCI-H69 small cell lung carcinoma cells (from UniProt P05556 21-798) (receptor)” yielded a Table II: inhibition of binding by Ca++ relative to Mg++ (ligand Coll-I,IV) (collagen type I) of 15% and a Table II: stimulation of binding by Mn++ relative to Mg++ (ligand Coll-I,IV) (collagen type I) of 1.4 fold.
“integrin VLA-5 (alpha5 beta1) from LOX melanoma cells (from UniProt P05556 21-798) (receptor)” gave an inhibition of LOX cell attachment to Fn by anti-VLA-5 mAb (P1D6) [2] of 85%.
“integrin VLA-6 (alpha6 beta1) (from UniProt P05556 21-798) (receptor)” was tested, and the inhibition of LOX cell attachment to Lm by anti-VLA-6 mAb (GoH3) [3] was 77% and the inhibition of NCI-H69 cell attachment to Lm by anti-VLA-6 mAb GoH3 [3] was 53%.
